Experimental data from the supplement of paper PMC10219994.
± gives the standard deviation of the averaged measurements.

B1: library; a variant is named by its letters at N, in order (parent)
chain: GAGACCGCAACTGAAAAGTTGTGGNNNNNATAGTGAGTCGCTGCCTGCAAAGACACAACT

Variants of: B1
Assay: ligation selection enrichment (abundance after / before one-round selection) (fold); higher = more template-directed ligation activity
Details: with T7Psub CACGGAUGCUAAUACGACUCACUAUA; MgCl2 25 mM; 42 °C; 4 h; pH 8.5
Summary of the method: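 RNA ligase library with five randomized core positions (0.75 μM, T7-transcribed) was reacted with RNA substrate (6 μM) in 50 mM EPPS pH 8.5, 25 mM MgCl2 at 42 °C for 4 h, in two independent experiments. Ligated products were PAGE-purified, reverse transcribed, barcoded by PCR and MiSeq-sequenced. Reads with quality score ≥30 at all randomized positions were counted. Enrichment was abundance after ligation divided by abundance before ligation.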

Variant	ligation selection enrichment
GAGACCGCAACTGAAAAGTTGTGGTCTGCATAGTGAGTCGCTGCCTGCAAAGACACAACT [TCTGC]	0.143 ± 0.0073
GAGACCGCAACTGAAAAGTTGTGGCCTAGATAGTGAGTCGCTGCCTGCAAAGACACAACT [CCTAG]	0.356 ± 0.004
GAGACCGCAACTGAAAAGTTGTGGCCTATATAGTGAGTCGCTGCCTGCAAAGACACAACT [CCTAT]	0.149 ± 0.059
GAGACCGCAACTGAAAAGTTGTGGCCTAAATAGTGAGTCGCTGCCTGCAAAGACACAACT [CCTAA]	0.148 ± 0.0065
GAGACCGCAACTGAAAAGTTGTGGCCTACATAGTGAGTCGCTGCCTGCAAAGACACAACT [CCTAC]	0.14 ± 0.03
GAGACCGCAACTGAAAAGTTGTGGTCTTGATAGTGAGTCGCTGCCTGCAAAGACACAACT [TCTTG]	0.678 ± 0.067
GAGACCGCAACTGAAAAGTTGTGGTCTTAATAGTGAGTCGCTGCCTGCAAAGACACAACT [TCTTA]	0.122 ± 0.024
GAGACCGCAACTGAAAAGTTGTGGTCTTCATAGTGAGTCGCTGCCTGCAAAGACACAACT [TCTTC]	0.0955 ± 0.034
GAGACCGCAACTGAAAAGTTGTGGTCTTTATAGTGAGTCGCTGCCTGCAAAGACACAACT [TCTTT]	0.193 ± 0.18
GAGACCGCAACTGAAAAGTTGTGGACTGGATAGTGAGTCGCTGCCTGCAAAGACACAACT [ACTGG]	0.421 ± 0.0057
GAGACCGCAACTGAAAAGTTGTGGACTGCATAGTGAGTCGCTGCCTGCAAAGACACAACT [ACTGC]	0.137 ± 0.025
GAGACCGCAACTGAAAAGTTGTGGACTGTATAGTGAGTCGCTGCCTGCAAAGACACAACT [ACTGT]	0.13 ± 0.074
GAGACCGCAACTGAAAAGTTGTGGACTGAATAGTGAGTCGCTGCCTGCAAAGACACAACT [ACTGA]	0.286 ± 0.048
GAGACCGCAACTGAAAAGTTGTGGACTACATAGTGAGTCGCTGCCTGCAAAGACACAACT [ACTAC]	0.128 ± 0.011
GAGACCGCAACTGAAAAGTTGTGGACTATATAGTGAGTCGCTGCCTGCAAAGACACAACT [ACTAT]	0.119 ± 0.05
GAGACCGCAACTGAAAAGTTGTGGACTAAATAGTGAGTCGCTGCCTGCAAAGACACAACT [ACTAA]	0.168 ± 0.031
GAGACCGCAACTGAAAAGTTGTGGACTAGATAGTGAGTCGCTGCCTGCAAAGACACAACT [ACTAG]	0.403 ± 0.037
GAGACCGCAACTGAAAAGTTGTGGGCTGCATAGTGAGTCGCTGCCTGCAAAGACACAACT [GCTGC]	0.1333 ± 0.00076
GAGACCGCAACTGAAAAGTTGTGGGCTGTATAGTGAGTCGCTGCCTGCAAAGACACAACT [GCTGT]	0.15 ± 0.068
GAGACCGCAACTGAAAAGTTGTGGGCTGAATAGTGAGTCGCTGCCTGCAAAGACACAACT [GCTGA]	0.315 ± 0.015
GAGACCGCAACTGAAAAGTTGTGGGCTGGATAGTGAGTCGCTGCCTGCAAAGACACAACT [GCTGG]	0.462 ± 0.073
GAGACCGCAACTGAAAAGTTGTGGTCTCGATAGTGAGTCGCTGCCTGCAAAGACACAACT [TCTCG]	0.368 ± 0.12
GAGACCGCAACTGAAAAGTTGTGGTCTCCATAGTGAGTCGCTGCCTGCAAAGACACAACT [TCTCC]	0.267 ± 0.12

Variant	ligation selection enrichment
GAGACCGCAACTGAAAAGTTGTGGCCTCTATAGTGAGTCGCTGCCTGCAAAGACACAACT [CCTCT]	0.266 ± 0.11
GAGACCGCAACTGAAAAGTTGTGGCCTCGATAGTGAGTCGCTGCCTGCAAAGACACAACT [CCTCG]	0.55 ± 0.064
GAGACCGCAACTGAAAAGTTGTGGCCTCCATAGTGAGTCGCTGCCTGCAAAGACACAACT [CCTCC]	0.347 ± 0.0045
GAGACCGCAACTGAAAAGTTGTGGCCTCAATAGTGAGTCGCTGCCTGCAAAGACACAACT [CCTCA]	0.348 ± 0.055
GAGACCGCAACTGAAAAGTTGTGGGCGTGATAGTGAGTCGCTGCCTGCAAAGACACAACT [GCGTG]	0.272 ± 0.018
GAGACCGCAACTGAAAAGTTGTGGGCGTCATAGTGAGTCGCTGCCTGCAAAGACACAACT [GCGTC]	0.231 ± 0.09
GAGACCGCAACTGAAAAGTTGTGGGCGTTATAGTGAGTCGCTGCCTGCAAAGACACAACT [GCGTT]	0.288 ± 0.12
GAGACCGCAACTGAAAAGTTGTGGTGAAAATAGTGAGTCGCTGCCTGCAAAGACACAACT [TGAAA]	0.326 ± 0.022
GAGACCGCAACTGAAAAGTTGTGGTGAATATAGTGAGTCGCTGCCTGCAAAGACACAACT [TGAAT]	3.36 ± 0.95
GAGACCGCAACTGAAAAGTTGTGGTGAACATAGTGAGTCGCTGCCTGCAAAGACACAACT [TGAAC]	0.25 ± 0.0069
GAGACCGCAACTGAAAAGTTGTGGTGAAGATAGTGAGTCGCTGCCTGCAAAGACACAACT [TGAAG]	0.271 ± 0.03
GAGACCGCAACTGAAAAGTTGTGGACGTTATAGTGAGTCGCTGCCTGCAAAGACACAACT [ACGTT]	0.149 ± 0.0019
GAGACCGCAACTGAAAAGTTGTGGACGTGATAGTGAGTCGCTGCCTGCAAAGACACAACT [ACGTG]	0.17 ± 0.0072
GAGACCGCAACTGAAAAGTTGTGGACGTCATAGTGAGTCGCTGCCTGCAAAGACACAACT [ACGTC]	0.172 ± 0.045
GAGACCGCAACTGAAAAGTTGTGGACTTAATAGTGAGTCGCTGCCTGCAAAGACACAACT [ACTTA]	0.172 ± 0.0078
GAGACCGCAACTGAAAAGTTGTGGACTTTATAGTGAGTCGCTGCCTGCAAAGACACAACT [ACTTT]	0.465 ± 0.065
GAGACCGCAACTGAAAAGTTGTGGACTTCATAGTGAGTCGCTGCCTGCAAAGACACAACT [ACTTC]	0.192 ± 0.049
GAGACCGCAACTGAAAAGTTGTGGACTTGATAGTGAGTCGCTGCCTGCAAAGACACAACT [ACTTG]	0.918 ± 0.18
GAGACCGCAACTGAAAAGTTGTGGGCTCCATAGTGAGTCGCTGCCTGCAAAGACACAACT [GCTCC]	0.301 ± 0.0054
GAGACCGCAACTGAAAAGTTGTGGGCTCAATAGTGAGTCGCTGCCTGCAAAGACACAACT [GCTCA]	0.244 ± 0.1
GAGACCGCAACTGAAAAGTTGTGGGCTCGATAGTGAGTCGCTGCCTGCAAAGACACAACT [GCTCG]	0.533 ± 0.037
GAGACCGCAACTGAAAAGTTGTGGGCTCTATAGTGAGTCGCTGCCTGCAAAGACACAACT [GCTCT]	0.165 ± 0.064
